Patent publication US20150173367

Tested on: RepN (N-terminal 191 residues of TYLCV Rep) (Tomato yellow leaf curl virus)
Assay: EMSA
Settings: 10 mM Tris-HCl, 100 mM NaCl, 5 mM MgCl2, 0.1 mM ZnCl2, pH 7.5, on ice

For “TYLCV replication origin DNA containing Rep-binding direct repeats”, the Kd was 30 nM.
